Data taken from patent US20250034601.

Experiments:
[1] = target: T1, MBP-tagged AtBSβ (beta subunit of Arabidopsis thaliana benzaldehyde synthase)
T1 chain: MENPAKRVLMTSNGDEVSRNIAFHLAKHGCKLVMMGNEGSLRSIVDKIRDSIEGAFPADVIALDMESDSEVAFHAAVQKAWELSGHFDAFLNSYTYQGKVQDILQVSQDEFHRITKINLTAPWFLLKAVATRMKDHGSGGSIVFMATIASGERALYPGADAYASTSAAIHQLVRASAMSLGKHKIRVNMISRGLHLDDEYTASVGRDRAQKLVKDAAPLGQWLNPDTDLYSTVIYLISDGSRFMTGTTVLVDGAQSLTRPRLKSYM

[2] = target: T2, MBP-tagged PhBSβ (beta subunit of Petunia hybrida benzaldehyde synthase)
T2 chain: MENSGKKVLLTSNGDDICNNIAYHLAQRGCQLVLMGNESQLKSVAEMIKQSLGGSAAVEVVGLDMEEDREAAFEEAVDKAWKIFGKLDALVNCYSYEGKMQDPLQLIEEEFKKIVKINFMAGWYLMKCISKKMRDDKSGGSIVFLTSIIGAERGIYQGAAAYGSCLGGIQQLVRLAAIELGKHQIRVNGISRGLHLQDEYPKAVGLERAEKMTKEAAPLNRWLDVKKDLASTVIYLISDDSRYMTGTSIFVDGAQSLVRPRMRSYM

[3] = target: T3, MBP-tagged SlBSβ (beta subunit of Solanum lycopersicum benzaldehyde synthase)
T3 chain: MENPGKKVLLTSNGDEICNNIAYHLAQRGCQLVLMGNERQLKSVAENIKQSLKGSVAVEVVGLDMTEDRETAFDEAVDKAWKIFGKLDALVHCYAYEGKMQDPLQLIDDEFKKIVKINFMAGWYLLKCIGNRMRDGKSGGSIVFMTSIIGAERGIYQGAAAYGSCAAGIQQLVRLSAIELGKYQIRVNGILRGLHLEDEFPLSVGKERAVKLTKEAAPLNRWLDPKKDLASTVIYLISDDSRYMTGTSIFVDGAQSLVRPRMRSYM

[4] = target: T4, MBP-tagged PdBSβ (beta subunit of Prunus dulcis benzaldehyde synthase)
T4 chain: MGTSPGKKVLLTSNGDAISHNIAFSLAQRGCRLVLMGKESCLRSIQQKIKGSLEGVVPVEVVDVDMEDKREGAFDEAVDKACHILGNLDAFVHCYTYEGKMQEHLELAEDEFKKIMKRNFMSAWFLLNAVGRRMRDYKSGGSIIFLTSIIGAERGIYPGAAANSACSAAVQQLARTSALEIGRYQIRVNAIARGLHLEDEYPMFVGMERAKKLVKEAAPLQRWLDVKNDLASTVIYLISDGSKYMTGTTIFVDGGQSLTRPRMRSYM

B1: MBP-tagged AtBSα (alpha subunit of Arabidopsis thaliana benzaldehyde synthase) (protein)
chain: MANQVADHLEPWRHLHGKVVMVTGASSGLGREFCLDLAKAGCRIVAAARRIDRLQSVCDEINQLTVTAPSSSSSSSSVNGPGSSRAVAVELDISADGPAIEKSVNKAWDAFGRIDALVNNAGVRGNVSSSLELSEEEWNNVFKTNLTGSWLVSKYVSIRMRDADQGGSIINVSSIAGLHRGYLPGAVAYNCSKAGVNTLAKVMAMELGVHKIRVNAISPGLFRSEITEGLMKKDWLHNVAMKTVPLRTFGTSDPALTSLVRYLVHDSSEYVSGNVYIVDAGATLPGVPIFSAL
- benzaldehyde synthase activity (GC-MS) [1]: benzaldehyde synthases from all three organisms (i.e., Solanum lycopersicum, Prunus dulcis, and Arabidopsis thaliana) showed activity only when two purified recombinant subunits were combined
- BS activity of hybrid enzyme relative to AtBS [2]: interactions of the three tested β subunits with AtBSα promoted activities of hybrid proteins
- BS activity of hybrid enzyme relative to AtBS [3]: increasing activity from 4.6- to 7.8-fold in AtBSα-SlBSβ and AtBSα-PdBSβ, respectively, relative to AtBS
- BS activity of hybrid enzyme [4]: the AtBSα-PdBSβ hybrid was as active as PdBS
- BS activity of hybrid enzyme relative to AtBS [4]: increasing activity from 4.6- to 7.8-fold in AtBSα-SlBSβ and AtBSα-PdBSβ, respectively, relative to AtBS

B2: MBP-tagged PdBSα (alpha subunit of Prunus dulcis benzaldehyde synthase) (protein)
chain: MANQVADHLEPWRHLHGKVVMVTGASSGLGREFCLDLAKAGCRIVAAARRIDRLQSVCDEINQLTVTAPSSSSSSSSVNGPGSSRAVAVELDISADGPAIEKSVNKAWDAFGRIDALVNNAGVRGNVSSSLELSEEEWNNVFKTNLTGSWLVSKYVSIRMRDADQGGSIINVSSIAGLHRGYLPGAVAYNCSKAGVNTLAKVMAMELGVHKIRVNAISPGLFRSEITEGLMKKDWLHNVAMKTVPLRTFGTSDPALTSLVRYLVHDSSEYVSGNVYIVDAGATLPGVPIFSAL
- BS activity of hybrid enzyme relative to PdBS [2]: the activities of hybrid enzymes comprising PdBSα were up to 2.5-fold lower than that of PdBS enzyme
- BS activity of hybrid enzyme relative to PdBS [3]: the activities of hybrid enzymes comprising PdBSα were up to 2.5-fold lower than that of PdBS enzyme
- benzaldehyde synthase activity (GC-MS) [4]: benzaldehyde synthases from all three organisms (i.e., Solanum lycopersicum, Prunus dulcis, and Arabidopsis thaliana) showed activity only when two purified recombinant subunits were combined

B3: MBP-tagged SlBSα (alpha subunit of Solanum lycopersicum benzaldehyde synthase) (protein)
chain: METHAKSVRQLEPWGELAGKVVMVTGASSGIGRDFCSDLSKAGCRIIAAARRIDRLQSLCDEINSNSSNGSTKSSQDLRAVAIELDVSANGSAIEAAVQKAWDAFGRIDGLVNNAGFRGSVLSPLELSEEEWEKIHKTNLRGAWLVTKYVCMHMRAANQGGSIINISSIAGINRGQLPGSLAYTSSKEALNSITKVLALELGPYKIRVNSISPGLFKSEITEGLIQKDWIKNIELRTIPLRTHGTSHPALTSVVRYLIHDSSEYVSGNMFIVDAGATLPGVPIFSSL
- BS activity of cross-species heterodimers (subunits mixed 1:1) [1]: only the AtBSβ subunit was not able to produce active enzymes upon interaction with PhBSα and SlBSα
- BS activity of hybrid enzyme relative to SlBS [2]: activities of SlBSα-PhBSβ and SlBSα-PdBSβ were 6.5-fold lower and 2.7-fold higher, respectively, as compared with SlBS
- benzaldehyde synthase activity (GC-MS) [3]: benzaldehyde synthases from all three organisms (i.e., Solanum lycopersicum, Prunus dulcis, and Arabidopsis thaliana) showed activity only when two purified recombinant subunits were combined
- BS activity of hybrid enzyme relative to SlBS [4]: activities of SlBSα-PhBSβ and SlBSα-PdBSβ were 6.5-fold lower and 2.7-fold higher, respectively, as compared with SlBS

B4: MBP-PhBSα (maltose binding protein-tagged alpha subunit of Petunia hybrida benzaldehyde synthase) (protein)
chain: MEKQTQARFLEPWRDLKGKVVMVTGASSGIGLDLCLDLAKAGCKIIAAARRVDRLKSLCNQINAAADDDDDNNRAVAVELDVSANGDAIEAAVKEAWGAFGRIDALVNNAGVRGTVHSPLELTEEECHNTFRTNLTGTWLVSKYVCKFMRDAKQGGSVINISSIAGLNRGQLPGGLAYVSSKGAVNMVTKVMALELGVDKIRVNSISPGLFKSEITQGLIQKEWLNNVAMRTIPLRTHGNSADPALTSVVRYLIHDSSEYVSGNLFIVDAGATLPGVPIFSSL
- BS activity of cross-species heterodimers (subunits mixed 1:1) [1]: only the AtBSβ subunit was not able to produce active enzymes upon interaction with PhBSα and SlBSα
- benzaldehyde synthase activity (benzoyl-CoA + NADPH, GC-MS) [2]: Neither of the two purified recombinant proteins displayed benzaldehyde synthase activity when tested alone ... however, benzaldehyde was efficiently formed when the two subunit proteins were mixed in equal amounts (e.g., a 1:1 ratio)
- BS activity of cross-species heterodimers (subunits mixed 1:1) [3]: interactions of PdBSβ and SlBSβ with PhBSα resulted in hybrid enzymes with activities almost identical to that of PhBS
- BS activity of cross-species heterodimers (subunits mixed 1:1) [4]: interactions of PdBSβ and SlBSβ with PhBSα resulted in hybrid enzymes with activities almost identical to that of PhBS
